Usually Kd stands for the concentration at which binding is half-saturated.

This is an account of results in publication PMC10953500.

In assay [1] the target is receptor binding domain (RBD) of the SARS-CoV-2 spike protein with C-terminal 6xHis-tag (SARS-CoV-2) (UniProt P0DTC2). Nature of the assay: SPR. For orientation: Surface plasmon resonance follows binding to a sensor surface in real time, without labels.
Assay [2] has as its target recombinant CD89 (Fc-alpha receptor, FcαRI) with C-terminal His-tag (UniProt P24071). As to the kind of experiment: SPR.

Sequence of recombinant CD89 (Fc-alpha receptor, FcαRI) with C-terminal His-tag (P24071 22-227): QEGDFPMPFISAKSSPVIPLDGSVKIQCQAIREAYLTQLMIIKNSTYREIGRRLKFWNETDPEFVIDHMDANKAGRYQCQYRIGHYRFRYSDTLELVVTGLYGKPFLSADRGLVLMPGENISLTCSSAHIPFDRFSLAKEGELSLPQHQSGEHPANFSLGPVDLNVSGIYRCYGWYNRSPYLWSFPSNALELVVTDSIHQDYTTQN
Sequence of COVA2-15 IgA1 produced in the H10-KO line co-infiltrated with GalNAc-T2 and C1GalT1 ("H10+O") (P01876 whole entry, looked up, tested part not stated): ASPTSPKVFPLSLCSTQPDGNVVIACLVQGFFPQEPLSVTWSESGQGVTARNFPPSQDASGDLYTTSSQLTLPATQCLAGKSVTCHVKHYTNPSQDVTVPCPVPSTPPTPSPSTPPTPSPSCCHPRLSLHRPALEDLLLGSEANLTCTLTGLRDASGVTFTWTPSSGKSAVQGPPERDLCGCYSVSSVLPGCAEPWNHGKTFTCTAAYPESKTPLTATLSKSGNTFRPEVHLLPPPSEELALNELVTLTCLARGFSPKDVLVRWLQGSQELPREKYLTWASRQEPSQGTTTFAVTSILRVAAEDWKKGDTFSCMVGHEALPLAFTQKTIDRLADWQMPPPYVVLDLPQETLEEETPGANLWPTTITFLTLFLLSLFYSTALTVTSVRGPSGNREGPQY
Sequence of COVA2-15 IgA1 produced in N. benthamiana wildtype ("WT") (P01876 whole entry, looked up, tested part not stated): as above
Sequence of COVA2-15 IgA1 produced in the NbP4H10 knockout line pB109-1C ("H10-KO") (P01876 whole entry, looked up): as the sequence (P01876 whole entry, looked up, tested part not stated) above
Sequence of COVA2-15 IgA1 produced in HEK293-6E cells ("HEK") (P01876 whole entry, looked up, tested part not stated): as above

In the case of “COVA2-15 IgA1 produced in the H10-KO line co-infiltrated with GalNAc-T2 and C1GalT1 ("H10+O") (from UniProt P01876)”, the Kd in assay [1] amounted to 1.25 nM; in assay [2], 31.7 nM.

On to “COVA2-15 IgA1 produced in the NbP4H10 knockout line pB109-1C ("H10-KO") (from UniProt P01876)”, for which the figures for the Kd in assay [1] and in assay [2] were 1.31 nM and 61.3 nM, respectively.

Regarding “COVA2-15 IgA1 produced in N. benthamiana wildtype ("WT") (from UniProt P01876)”, the results for the Kd in assay [1] and in assay [2] were 1.53 nM and 66.6 nM, respectively.

On to “COVA2-15 IgA1 produced in HEK293-6E cells ("HEK") (from UniProt P01876)”, for which the Kd in assay [1] amounted to 0.85 nM; in assay [2], 36.7 nM.
